Measured values reported in US20200270346A1 (Merck Sharp & Dohme, published 2020).
Changes are numbered by the printed parent chain. Read-outs that look alike come from different tables or passages of the source.

Experiments:
[1] = molecular target: T1, human TIGIT-Fc protein (human, UniProt Q495A1 25-141); assay: SPR, Biacore T200, antibody captured on anti-mouse IgG, TIGIT-Fc in solution, 1:1 Langmuir fit
T1 construct: not shown: Fc part
T1 sequence: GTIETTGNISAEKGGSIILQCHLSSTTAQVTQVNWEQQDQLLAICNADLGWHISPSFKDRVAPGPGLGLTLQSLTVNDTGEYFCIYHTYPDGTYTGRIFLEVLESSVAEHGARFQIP
Protocol: (§1) The kinetic binding activity of anti-human TIGIT antibodies 14A6 and 31C6 (made as described in Example 1) and of commercial antibody MBSA43 was measured by surface plasmon resonance using a Biacore T200 system (Biacore, GE Healthcare, Piscataway, N.J.). Approximately 5000 RU of Anti-mouse IgG, GE Healthcare Catalog Number BR-1008-38, or approximately 13,000 RU of Goat Anti-Rat IgG Fc gamma, Fragment Specific, Jackson ImmunoResearch Catalog Number 112-006-071, was immobilized via amine coupling chemistry onto a Series S CM5 sensor chip, catalog number BR-1005-30. Mouse anti-human TIGIT clones, 31C6 and MBSA43, were each injected over the immobilized anti-mouse surfaces at 1 ug/mL for a capture level of 40 RU. Rat anti-human TIGIT clone 14A6 was injected over the immobilized anti-rat surfaces at 1 ug/mL for a capture level of 40 RU. HBS-EP+ buffer (BR-1006-69) was used as the running buffer with a flow rate of 30 μL/min. Varying concentrations of human TIGIT-His protein or TIGIT-Fc protein, ranging from 0.29 nM to 40 nM, at a flow rate of 45 μL/min were injected over the antibody surfaces. Following each Mouse anti-human TIGIT injection cycle for clones 31C6 and MBSA43, the Series S CM5 chip surface was regenerated using one three-minute injection of 10 mM Glycine pH 1.7 at a flow rate of […]. […]

[2] = molecular target: T2, rhesus TIGIT expressed on CHO-K1 cells (rhesus monkey); assay: cell-based ELISA, panel 'Binding to rhesus TIGIT-CHO'
T2 construct: also called rhesus TIGIT-CHOK1 cells; Cyno/Rhesus TIGIT
T2 sequence (chain, as listed by the source): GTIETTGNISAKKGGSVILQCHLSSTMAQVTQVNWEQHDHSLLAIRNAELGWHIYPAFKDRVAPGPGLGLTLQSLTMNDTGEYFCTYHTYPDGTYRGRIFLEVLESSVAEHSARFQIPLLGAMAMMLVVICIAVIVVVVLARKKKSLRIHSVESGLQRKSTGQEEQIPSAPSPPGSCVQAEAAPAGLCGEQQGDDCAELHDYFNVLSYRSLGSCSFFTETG

[3] = molecular target: T3, Human TIGIT-His (extracellular domain of hTIGIT with a histidine tag) (human, UniProt Q495A1 25-141); assay: SPR, Biacore T200, antibody captured on anti-mouse IgG, TIGIT-His in solution, 1:1 Langmuir fit
T3 construct: also called hTIGIT-His; hTIGIT-HIS
T3 sequence: T1 sequence
Protocol: as §1

[4] = molecular target: T4, human TIGIT expressed on cells (human, UniProt Q495A1 25-244); assay: cell-based or functional assay
T4 sequence: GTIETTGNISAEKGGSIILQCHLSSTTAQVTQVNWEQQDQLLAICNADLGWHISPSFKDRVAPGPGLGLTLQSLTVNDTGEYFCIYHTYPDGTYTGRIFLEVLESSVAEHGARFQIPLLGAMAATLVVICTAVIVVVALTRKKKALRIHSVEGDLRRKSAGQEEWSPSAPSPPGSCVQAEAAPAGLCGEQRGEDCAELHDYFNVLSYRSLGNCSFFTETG

[5] = molecular target: T4, human TIGIT expressed on cells; assay: cell-based ELISA blocking assay: binding of hCD155-hFc to human TIGIT-CHO-K1 cells, antibody titrated
[6] = molecular target: T4, human TIGIT expressed on cells; assay: cell-based ELISA, panel 'Binding to hTIGIT-CHO'
[7] = molecular target: T4, human TIGIT expressed on cells; assay: cell-based ELISA, panel 'Binding to human TIGIT-CHO K1 cells'
[8] = molecular target: T2, rhesus TIGIT expressed on CHO-K1 cells; assay: cell-based ELISA, panel 'Binding to rhesus TIGIT CHO K1 cells'
[9] = molecular target: T3, Human TIGIT-His (extracellular domain …); assay: SPR, Biacore T200, antibody captured on anti-rat IgG Fc, TIGIT-His in solution, 1:1 Langmuir fit
Protocol: as §1

[10] = molecular target: T4, human TIGIT expressed on cells; assay: cell-based ELISA blocking assay: binding of hCD155-hFc to human TIGIT-CHO-K1 cells, antibody titrated; remark: listed apart in the source
[11] = molecular target: T1, human TIGIT-Fc protein; assay: SPR, Biacore T200, antibody captured on anti-rat IgG Fc, TIGIT-Fc in solution, 1:1 Langmuir fit
Protocol: as §1

[12] = molecular target: T2, rhesus TIGIT expressed on CHO-K1 cells; assay: cell-based ELISA, panel 'Binding to rhesus TIGIT-CHOK1 cells'
[13] = molecular target: T4, human TIGIT expressed on cells; assay: cell-based ELISA, panel 'Binding to human TIGIT-CHO-K1 cells'
[14] = molecular target: T4, human TIGIT expressed on cells; assay: cell-based or functional assay; remark: listed apart in the source

B1: 31C6 (mouse anti-human TIGIT antibody, clone MEB125.31C6.A1.205) (antibody, mouse IgG1, V domains shown)
VH: EVQLQQSGPELVKPGSSVKMSCKASGYTFSSYVMHWVKQKPGQGLEWIGYIDPYNDGAKYNEKFKGKATLTSDKSSSTAYMELSSLTSEDSAVYYCARGGPYGWYFDVWGAGTTVTVSS
VL: DIQMTQSPASLSASVGETVTITCRASEHIYSYLSWYQQKQGKSPQLLVYNAKTLAEGVPSRFSGSGSGTQFSLKINSLQPEDFGTYYCQHHFGSPLTFGAGTTLELK
notes: Mouse IgG1/kappa; also called 31C6 (mIgG1/K); MEB125.31C6.A1.205 mIgG1
In the case of B1, the Kd [1] is reported as 0.0109 nM, the “EC50 (read off the curve)” value [2] is reported as about 0.06 µg/mL and the Kd [3] is reported as 0.0344 nM. For the same binder, the “EC50 of IL-2 rescue in hTIGIT-Jurkat / THP-1 co-culture” value [4] was 0.14 µg/mL, the “EC50 of IL-2 rescue in hTIGIT-Jurkat / hCD155-JY co-culture” value [4] was 0.73 µg/mL and the “IL-2 rescue relative to MBSA43 (10 µg/ml)” value [4] was 118%. For the same binder, the “increase in IFNγ production, BC4-clone 49 T cells with JY-hCD155 cells” value (shortened to “increase in IFNγ production”) [4] was about 2 fold, the “IC50 (read off the curve)” value [5] was about 900 ng/mL and the “EC50 (read off the curve)” value [6] was about 0.03 µg/mL.

B2: Mouse human chimera MEB125.31C6.A1.205 IgG1 (antibody, V domains shown)
VH: B1 VH
VL: B1 VL
B2 was tested, and the “EC50 of IL-2 rescue in hTIGIT-Jurkat / hCD155-JY co-culture” value [4] was 0.91 µg/mL.

B3: 28H5 (mouse anti-human TIGIT antibody, clone TC167.28H5.H5) (antibody, mouse IgG1, V domains shown)
VH: DVQLQESGPGLVKPSQSLSLTCTVTGYSITSDYAWNWIRQFPGNKLEWMGYISNSGSASYNPSLKSRISITRDTSKNQFFLQLNSVTTEDTATYYCATLIYYDYGGAMNFWGQGTSVTVSS
VL: DIVMTQSHKFMSTSVGDRVSITCKASQGVSTTVAWYQQKPGQSPKLLIYSASYRYTGVPDRFTGSGSGTDFTFTISSVQSEDLAVYYCQHYYSTPWTFGGGTKLEIK
notes: Mouse IgG1/kappa
For B3, the “EC50 (read off the curve)” value [7] was about 100 µg/mL, the “EC50 of IL-2 rescue in hTIGIT-Jurkat / THP-1 co-culture” value [4] was 0.24 µg/mL and the “increase in IFNγ production” value [4] was about 2 fold. The “EC50 (read off the curve)” value [8] was about 50 ng/mL.

B4: 14A6 (rat anti-human TIGIT antibody, clone LB155.14A6.G2.A8) (antibody, V domains shown)
VH: EVQLQESGPGLVKPSQSLSLTCSVTGSSIASDYWGWIRKFPGNKMEWMGFITYSGSTSYNPSLKSRISITRDTSKNQFFLQLHSVTTDDTATYSCARMPSFITLASLSTWEGYFDFWGPGTMVTVSS
VL: DIQMTQSPSLLSASVGDRVTLNCKASQSIHKNLAWYQQKLGEAPKFLIYYANSLQTGIPSRFSGSGSGTDFTLTISGLQPEDVATYFCQQYYSGWTFGGGTKVELK
notes: also called 14A6 (rIgG2a/K)
With B4 the Kd [9] was 3.09 pM, the “IC50 (read off the curve)” value [10] was about 100 ng/mL and the “EC50 of IL-2 rescue in hTIGIT-Jurkat / THP-1 co-culture” value [4] was 0.19 µg/mL. The “IL-2 rescue relative to MBSA43 (10 µg/ml)” value [4] was 82%, the “increase in IFNγ production” value [4] was about 2 fold and the Kd [11] was 3.12 pM. For the same binder, the “EC50 (read off the curve)” value [12] was about 200 ng/mL and the “EC50 (read off the curve)” value [13] was about 100 ng/mL.

B5: MEB125.31C6.A1.205 VH4/VL1 (antibody, human IgG1, V domains shown)
VH: EVQLVQSGAEVKKPGASVKVSCKASGYTFSSYVMHWVRQAPGQGLEWIGYIDPYNDGAKYAQKFQGRVTLTSDKSTSTVYMELSSLRSEDTAVYYCARGGPYGWYFDVWGQGTTVTVSS
VL: DIQMTQSPSSLSASVGDRVTITCRASEHIYSYLSWYQQKPGKAPKLLIYNAKTLAEGVPSRFSGSGSGTDFTLTISSLQPEDFATYYCQHHFGSPLTFGQGTRLEIK
In the case of B5, the “EC50 of IL-2 rescue in hTIGIT-Jurkat / hCD155-JY co-culture” value [14] is reported as 0.62 µg/mL.

B6: MEB125.31C6.A1.205 VH5/VL4 (antibody, human IgG1, V domains shown)
VH: B5 VH with A16S, V79A
VL: B5 VL with A43V, D70Q, F83V
B6 was tested, and the “EC50 of IL-2 rescue in hTIGIT-Jurkat / hCD155-JY co-culture” value [14] was 1.2 µg/mL.

B7: MEB125.31C6.A1.205 VH5/VL3 (antibody, human IgG1, V domains shown)
VH: B5 VH with A16S, V79A
VL: B5 VL with A43V, F83V
For B7, the “EC50 of IL-2 rescue in hTIGIT-Jurkat / hCD155-JY co-culture” value [14] was 1.2 µg/mL.
